According to patent US20140112915A1 (Novartis, published 2014):
Like-named read-outs stand apart in the source and are kept apart here.

T1: Native human IL-18 (human, UniProt Q14116 37-193)
T1 sequence: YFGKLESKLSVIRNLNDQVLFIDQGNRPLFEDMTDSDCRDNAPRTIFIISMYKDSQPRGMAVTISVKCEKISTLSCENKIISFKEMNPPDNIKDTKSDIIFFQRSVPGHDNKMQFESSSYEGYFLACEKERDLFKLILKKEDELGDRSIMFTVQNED

T2: Recombinant human IL-18 (human, UniProt Q14116 37-193)
T2 sequence: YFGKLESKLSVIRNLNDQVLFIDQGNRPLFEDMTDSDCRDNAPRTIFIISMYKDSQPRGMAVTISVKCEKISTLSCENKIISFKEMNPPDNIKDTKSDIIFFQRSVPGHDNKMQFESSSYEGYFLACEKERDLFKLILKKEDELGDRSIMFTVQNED

T3: Recombinant cynomolgus IL-18 (cynomolgus monkey, UniProt Q14116 37-193 (human entry))
T3 chain: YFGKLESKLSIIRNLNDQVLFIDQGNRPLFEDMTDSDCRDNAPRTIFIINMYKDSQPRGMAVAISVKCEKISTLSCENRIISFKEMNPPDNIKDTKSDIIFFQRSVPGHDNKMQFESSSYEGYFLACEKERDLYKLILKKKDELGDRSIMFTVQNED


Experiments:
Assay in all cases: cell-based or functional assay
[1] = biological target: T1, Native human IL-18
[2] = biological target: T2, Recombinant human IL-18
[3] = biological target: T1, Native human IL-18; remark: listed apart in the source
[4] = biological target: T2, Recombinant human IL-18; remark: listed apart in the source
[5] = biological target: T1, Native human IL-18; remark: listed apart in the source
[6] = biological target: T2, Recombinant human IL-18; remark: listed apart in the source
[7] = biological target: T3, Recombinant cynomolgus IL-18

Binder	IC50, inhibition of IFN-γ release, human whole blood, LPS/IL-12 (native IL-18) [1] [nM]	IC50, inhibition of IFN-γ release, human whole blood, recombinant human IL-18 (7 nM) [2] [nM]	IC50, inhibition of IFN-γ release, PBMC, Native IL-18 (LPS/IL-12) [3] [nM]	IC50, inhibition of IFN-γ release, KG-1 cells, Hu IL-18 (1 nM) [4] [nM]	IC50, inhibition of IFN-γ release, PBMC, Native IL-18 (LPS/IL-12) [5] [nM]	IC50, inhibition of IFN-γ release, KG-1 cells, Hu IL-18 (0.5 nM) [6] [nM]	IC50, inhibition of IFN-γ release, KG-1 cells, Cyno IL-18 (0.2 nM) [7] [nM]	IC50, inhibition of IFN-γ release, KG-1 cells, Hu IL-18 (1 nM) [6] [nM]	IC50, inhibition of IFN-γ release, PBMC, Hu IL-18 (recombinant) [6] [nM]	IC50, inhibition of IFN-γ release, KG-1 cells, Cyno IL-18 [7] [nM]
MOR10222_E1Q_N30S_M54N (antibody, human IgG1, lambda, L234A L235A, V domains shown) VH: QVQLVQSGAEVKKPGSSVKVSCKASGGTFSSYAISWVRQAPGQGLEWMGNIIPNTGQTYYAQKFQGRVTITADESTSTAYMELSSLRSEDTAVYYCARAAYHPLVFDNWGQGTLVTVSS VL: QSVLTQPPSASGTPGQRVTISCSGSSSNIGNHYVNWYQQLPGTAPKLLIYRNNHRPSGVPDRFSGSKSGTSASLAISGLQSEDEADYYCQSWDYSGFSTVFGGGTKLTVLG	16.1	46.5	0.03	5.2						
MOR10222_E1Q_N30S (antibody, human IgG1, lambda, L234A L235A, V domains shown) VH: QVQLVQSGAEVKKPGSSVKVSCKASGGTFSSYAISWVRQAPGQGLEWMGNIIPMTGQTYYAQKFQGRVTITADESTSTAYMELSSLRSEDTAVYYCARAAYHPLVFDNWGQGTLVTVSS VL: QSVLTQPPSASGTPGQRVTISCSGSSSNIGNHYVNWYQQLPGTAPKLLIYRNNHRPSGVPDRFSGSKSGTSASLAISGLQSEDEADYYCQSWDYSGFSTVFGGGTKLTVLG	16.9	58.4	0.05	3.3						
MOR9464_N30E (antibody, human IgG1, lambda, L234A L235A, V domains shown) VH: EVQLVQSGAEVKKPGSSVKVSCKASGGTFESYAISWVRQAPGQGLEWMGNIIPMTGQTYYAQKFQGRVTITADESTSTAYMELSSLRSEDTAVYYCARAAYHPLVFDNWGQGTLVTVSS VL: DIVLTQPPSVSGAPGQRVTISCSGSSSNIGNHYVNWYQQLPGTAPKLLIYRNNHRPSGVPDRFSGSKSGTSASLAITGLQSEDEADYYCQSWDYSGFSTVFGGGTKLTVLG	19.2	12.9	0.13	0.49						
MOR13342 (antibody, human IgG1, kappa, L234A L235A, V domains shown) VH: QVQLVQSGAEVKKPGSSVKVSCKASGGTFSTFSISWVRQAPGQGLEWMGGIIPIFGTANYAQKFQGRVTITADESTSTAYMELSSLRSEDTAVYYCARGGYGGYYYFDYWGQGTLVTVSS VL: DIQMTQSPSSLSASVGDRVTITCRASQSISNRLNWYQQKPGKAPKLLIYKGSTLQSGVPSRFSGSGSGTDFTLTISSLQPEDFATYYCQQHYVWSTTFGQGTKVEIKR	21.5	6.6			0.5	0.11	2.9			
MOR13347 (antibody, human IgG1, kappa, L234A L235A, V domains shown) VH: QVQLVQSGAEVKKPGSSVKVSCKASGGTFSTFSISWVRQAPGQGLEWMGGIIPIFGTANYAQKFQGRVTITADESTSTAYMELSSLRSEDTAVYYCARGGYGGYYYFDYWGQGTLVTVSS VL: DIQMTQSPSSLSASVGDRVTITCRASQSISNRLNWYQQKPGKAPKLLIYKGSTLQSGVPSRFSGSGSGTDFTLTISSLQPEDFATYYCQQHYQWLTTFGQGTKVEIKR	8.3	3.5			0.5	0.12	2.8			
Recombinant human IL-18 Binding Protein-IgG1 Fc (Fc fusion, UniProt O95998 31-194, looked up, not shown: a dimerising Fc or GST) TPVSQTTTAATASVRSTKDPCPSQPPVFPAAKQCPALEVTWPEVEVPLNGTLSLSCVACSRFPNFSILYWLGNGSFIEHLPGRLWEGSTSRERGSTGTQLCKALVLEQLTPALHSTNFSCVLVDPEQVVQRHVVLAQLWAGLRATLPPTQEALPSSHSSPQQQG	12.1	5.7			0.17			0.3	1	0.4
